The values that follow come from patent publication US20190338048A1.

Assay [1] deals with Pertuzumab kappa light chain Q124K_S176A_T178R. Description: LCCA.
The target of assay [2] is Pertuzumab kappa light chain V133A_S176K (L2), HA-tagged. Description: LCCA, SPR of light-chain tags.
The target in assay [3] is Pertuzumab kappa light chain V133G_S176R (L2), HA-tagged. Description: LCCA, SPR of light-chain tags.
Assay [4] has as its target Pertuzumab kappa light chain V133A_S176K (L2), HA-tagged. Description: LCCA, SPR of light-chain tags. The source holds these as a separate data set.
The target of assay [5] is Pertuzumab kappa light chain V133G_S176R (L2), HA-tagged. Description: LCCA, SPR of light-chain tags. This is another data set of the same source.
Assay [6] has as its target Pertuzumab kappa light chain S176K_T178K (L2), HA-tagged. Description: LCCA, SPR of light-chain tags.
The target of assay [7] is Pertuzumab kappa light chain S176K_T178L (L2), HA-tagged. Description: LCCA, SPR of light-chain tags.
Assay [8] concerns the target Pertuzumab kappa light chain S176K_T178R (L2), HA-tagged. Description: LCCA, SPR of light-chain tags.
The target in assay [9] is Pertuzumab kappa light chain S176K_T178K (L2), HA-tagged. Description: LCCA, SPR of light-chain tags. This is another data set of the same source.
In assay [10] the target is Pertuzumab kappa light chain S176K_T178L (L2), HA-tagged. Description: LCCA, SPR of light-chain tags. This is another data set of the same source.
Assay [11] deals with Pertuzumab kappa light chain S176K_T178R (L2), HA-tagged. Description: LCCA, SPR of light-chain tags. This is another data set of the same source.
Assay [12] addresses Pertuzumab kappa light chain S176K_T178K (L2), HA-tagged. Description: LCCA, SPR of light-chain tags. The source holds these as a separate data set.
The target of assay [13] is Pertuzumab kappa light chain S176K_T178L (L2), HA-tagged. Description: LCCA, SPR of light-chain tags. The source holds these as a separate data set.
Assay [14] deals with Pertuzumab kappa light chain S176K_T178R (L2), HA-tagged. Description: LCCA, SPR of light-chain tags. This is another data set of the same source.
For assay [15], the target named is Pertuzumab kappa light chain S176K_T178K (L2), HA-tagged. Description: LCCA, SPR of light-chain tags. This is another data set of the same source.
Assay [16] has as its target Pertuzumab kappa light chain S176K_T178L (L2), HA-tagged. Description: LCCA, SPR of light-chain tags. This is another data set of the same source.
The target in assay [17] is Pertuzumab kappa light chain S176K_T178R (L2), HA-tagged. Description: LCCA, SPR of light-chain tags. The source holds these as a separate data set.
The target of assay [18] is Pertuzumab kappa light chain S176K_T178K (L2), HA-tagged. Description: LCCA, SPR of light-chain tags. This is another data set of the same source.
Assay [19] deals with Pertuzumab kappa light chain S176K_T178R (L2), HA-tagged. Description: LCCA, SPR of light-chain tags. This is another data set of the same source.
In assay [20] the target is CAT-2200 heavy chain Fab construct (H1) L143E_K145T. Description: LCCA, SPR tag read-out.
Assay [21] concerns the target CAT-2200 heavy chain Fab construct (H1) L143E_K145T_Q179E. Description: LCCA, SPR tag read-out.
The target in assay [22] is CAT-2200 lambda light chain K129T_V133W_S180E. Description: LCCA.
Assay [23] addresses Pertuzumab kappa light chain Q124K_V133A_T178R. Description: LCCA.
For assay [24], the target named is CAT-2200 heavy chain Fab construct (H1) Q179K. Description: LCCA, SPR tag read-out.
For assay [25], the target named is CAT-2200 heavy chain Fab construct (H1) D146G_Q179K. Description: LCCA, SPR tag read-out.
Assay [26] concerns the target CAT-2200 heavy chain Fab construct (H1) Q179K. Description: LCCA, SPR tag read-out. This is another data set of the same source.
Assay [27] deals with CAT-2200 heavy chain Fab construct (H1) S186R. Description: LCCA, SPR tag read-out.
The target is the same in assay [28]. Description: LCCA, SPR tag read-out. The source holds these as a separate data set.
The target in assay [29] is Pertuzumab kappa light chain S131K_L135A. Description: LCCA.
Assay [30] addresses Pertuzumab kappa light chain V133D (L2), N-terminal HA tag. Description: LCCA, SPR of light chain tags.
The target is the same in assay [31]. Description: LCCA, SPR of light chain tags. This is another data set of the same source.
For assay [32], the target named is CAT-2200 lambda light chain S176K_Y178K (L1), N-terminal FLAG tag. Description: LCCA, SPR of light chain tags.
The target of assay [33] is Pertuzumab kappa light chain Q124R_L135W_Q160K_T178R. Description: LCCA.
In assay [34] the target is Pertuzumab kappa light chain Q124R_L135W_T178R. Description: LCCA.
The target of assay [35] is Pertuzumab kappa light chain Q124R_Q160K_T178R. Description: LCCA.
Assay [36] has the same target. Description: LCCA. The source holds these as a separate data set.
Assay [37] deals with CAT-2200 lambda light chain S176E_Y178E (L1), FLAG-tagged. Description: LCCA, SPR of light-chain tags.
For assay [38], the target named is CAT-2200 lambda light chain V133L_S176D_Y178E (L1), FLAG-tagged. Description: LCCA, SPR of light-chain tags.
The target of assay [39] is Pertuzumab kappa light chain V133A_S176K_T178A (L2), HA-tagged. Description: LCCA, SPR of light-chain tags.
The target of assay [40] is Pertuzumab kappa light chain V133G_S176R_T178A (L2), HA-tagged. Description: LCCA, SPR of light-chain tags.
The target in assay [41] is Pertuzumab kappa light chain V133A_S176K_T178A (L2), HA-tagged. Description: LCCA, SPR of light-chain tags. This is another data set of the same source.
Assay [42] has as its target Pertuzumab kappa light chain V133G_S176R_T178A (L2), HA-tagged. Description: LCCA, SPR of light-chain tags. The source holds these as a separate data set.
Assay [43] has as its target CAT-2200 lambda light chain S176E_Y178E (L1), FLAG-tagged. Description: LCCA, SPR of light-chain tags. This is another data set of the same source.
Assay [44] addresses CAT-2200 lambda light chain V133L_S176D_Y178E (L1), FLAG-tagged. Description: LCCA, SPR of light-chain tags. This is another data set of the same source.
For assay [45], the target named is CAT-2200 heavy chain Fab construct (H1) L124E. Description: LCCA, SPR tag read-out.
Assay [46] concerns the target CAT-2200 lambda light chain Y178K. Description: LCCA.
Assay [47] addresses Pertuzumab kappa light chain Q124E_V133D_S176E_T178E_T180E. Description: LCCA.
In assay [48] the target is Pertuzumab kappa light chain Q124E_V133D_S176E_T180E. Description: LCCA.
The target in assay [49] is Pertuzumab kappa light chain Q124E_S176E_T178D_T180E. Description: LCCA.
In assay [50] the target is Pertuzumab kappa light chain Q124E_S176E_T178E_T180E. Description: LCCA.
Assay [51] deals with Pertuzumab kappa light chain Q124E_S176E_T180E. Description: LCCA.
The target of assay [52] is CAT-2200 lambda light chain Y178K. Description: LCCA. This is another data set of the same source.
Assay [53] has as its target Pertuzumab kappa light chain Q124E_Q160E_S176A_T178A_T180E (L2), N-terminal HA tag. Description: LCCA, SPR of light chain tags.
Assay [54] has as its target Pertuzumab kappa light chain S121K_S131K. Description: LCCA.
For assay [55], the target named is Pertuzumab kappa light chain S121K_T129K_S131K. Description: LCCA.
Assay [56] addresses Pertuzumab kappa light chain Q124E_Q160E_S176D_T178D_T180E. Description: LCCA.
In assay [57] the target is Pertuzumab kappa light chain Q124E_Q160E_S176D_T178D. Description: LCCA.

Where two headings read alike, the source gives them in different places.

In the case of “Pertuzumab Fab heavy chain L143E_K145T_S188W”, the H2L2:H2L1 median scalar value in assay [1] came to 0.43 ln.
Consider Pertuzumab Fab heavy chain L124E (H2), for which the H2L2:H2L1 normalized median scalar value ln(r1/f1) in assay [2] is -0.15; in assay [3], 0.25; in assay [4], 1.69; in assay [5], 2.32.
Consider “Pertuzumab Fab heavy chain K145T_V177D_S188D (H2)”, for which the H2L2:H2L1 normalized median scalar value ln(r1/f1) is 1.83 in assay [6]; 2.29 in assay [7]; 1.64 in [8]; 1.95 in assay [9]; 1.52 in [10]; 1.9 in assay [11]. The H2L2:H2L1 normalized median scalar value ln(r1/f1) in assay [12] is 2.4; in assay [13], 2.11; in [14] it was 2.3; in assay [15], 1.93; in assay [16], 1.59; in assay [17] it was 1.59. The figures for the H2L2:H2L1 normalized median scalar value ln(r1/f1) in assay [18] and in [19] were 1.09 and 1.75, respectively.
In the case of “CAT-2200 lambda light chain construct (L1) E124R, FLAG-tagged”, the H1L1:H1L2 normalized median scalar value ln(r1/f1) in assay [20] is -0.11.
“CAT-2200 lambda light chain construct (L1) E124K_Y178R, FLAG-tagged”: the H1L1:H1L2 normalized median scalar value ln(r1/f1) in [21] was -0.13.
On to “Pertuzumab Fab heavy chain L124W_L143E_K145T”, for which the H2L2:H2L1 normalized median ratio in assay [22] is 33%. In addition, in assay [23], the H2L2:H2L1 median scalar value turned out to be 0.73 ln and the H2L2:H2L1 normalized median ratio is 67%.
Take “CAT-2200 lambda light chain construct (L1) S180E, FLAG-tagged”: the H1L1:H1L2 normalized median scalar value ln(r1/f1) was 0.94 in assay [24]; 2.16 in assay [25]; 2.32 in assay [26]; 2.24 in assay [27]; 2.07 in assay [28].
In turn, “Pertuzumab Fab heavy chain K145T_Q179E_S188F_V190F” showed an H2L2:H2L1 median scalar value in assay [29] of -0.45 ln.
As for “Pertuzumab Fab heavy chain S186K_S188T (H2), ABD2-His6 tagged”, the H2L2:H2L1 normalized median ratio in assay [30] was 70%; in assay [31] it was 62%; in assay [32], 38%. The values for the H2L2:H2L1 normalized median scalar value ln(r1/f1) in assay [30] and in [31] were 0.85 and 0.49, respectively.
For Pertuzumab Fab heavy chain L143E_K145T, the H2L2:H2L1 median scalar value is -0.26 ln in [33], -0.32 ln in [34], 0.86 ln in assay [35] and 3.09 ln in [36].
For “Pertuzumab Fab heavy chain L124E_S188W (H2)”, the H2L2:H2L1 normalized median ratio (H2L1 share) in [37] amounted to 46%; in assay [38] it was 15%; in assay [43] it was 46%; in assay [44] it was 14%. The H2L2:H2L1 normalized median ratio, H2L2 share in [39] came out at 54%; in assay [40] it was 54%; in assay [41] it was 85%; in assay [42] it was 86%. Also, the H2L2:H2L1 normalized median scalar value ln(r1/f1) stood at 0.18 in assay [39], 0.15 in [40], 1.71 in assay [41] and 1.84 in assay [42].
Turning to “CAT-2200 lambda light chain construct (L1) V133G_S176R, FLAG-tagged”, the H1L1:H1L2 normalized median scalar value ln(r1/f1) in assay [45] came out at 0.08.
On to Pertuzumab Fab heavy chain L143K_S188K, for which the figures for the H2L2:H2L1 normalized median ratio in assay [46] and in [48] were 27% and 73%, respectively. The H2L2:H2L1 median scalar value in [47] was determined as 0.61 ln; in [48], 1.01 ln.
Take Pertuzumab Fab heavy chain Q179K_S188K: the H2L2:H2L1 normalized median ratio in assay [46] turned out to be 12%; in [49], 88%; in assay [50] it was 92%; in [52] it was 8%. The H2L2:H2L1 median scalar value in assay [49] was 2.01 ln; in assay [50] it was 2.48 ln; in assay [51], 2.76 ln.
For the substance “Pertuzumab Fab heavy chain S186R_S188W (H2), ABD2-His6 tagged”, the H2L2:H2L1 normalized median scalar value ln(r1/f1) in assay [53] worked out at 2.64.
In assay [54], “Pertuzumab Fab heavy chain K145T_Q179E_K228D” returned an H2L2:H2L1 median scalar value of -0.1 ln. Further, in [55], the H2L2:H2L1 median scalar value was 0.07 ln and the H2L2:H2L1 normalized median ratio came to 51%.
For Pertuzumab Fab heavy chain S186R_S188K, the H2L2:H2L1 normalized median ratio came out at 31% in assay [46] and 69% in assay [57]. The results for the H2L2:H2L1 median scalar value in assay [56] and in [57] were 0 ln and 0.8 ln, respectively.
